Results as given in article PMC5525146.

Target: Actin from rabbit muscle (rabbit) (UniProt P68135)
Assay: co-sedimentation

percent of protein co-sedimented with F-actin at saturation: 20 to 22%
Substance: Palld-Ig3 K38/51A double mutant (domain or fragment)
